Source: patent US20060110388A1 (APPLIED MOLECULAR EVOLUTION, published 2006)

Columns and labels:
[1] = biological target: T1, β Amyloid peptide 1-40 (human, UniProt P05067 672-711); test: KinExA, Fab, equilibration 24 h
T1 construct: domain: β Amyloid peptide 1-40; Biotinylated peptide 1-40 (Biosource) on avidin Sepharose only captured free antibody in KinExA; also called Aβ 1-40; human Aβ (1-40)
Method: (§1) Typical 1× concentrations were 10 pM of antibody active sites (0.75 ng/mL) and an upper antigen concentration of 100 pM (0.43 ng/mL). The samples were then allowed to equilibrate for 24-72 hours at room temperature. A KinExA™ instrument (Sapidyne) and standard KD run file were then used to determine the KD of the system. Briefly, the KinExA™ flow cell was charged with the β Amyloid peptide coated beads and washed with PBSA. For the first sample, free antibody in solution was captured by the beads washed with PBSA and detected using 1:250 Goat anti-human Cy5 (Jackson Immunochemicals) in PBSA. The flow cell was then flushed, re-charged with beads and the next sample analyzed. The process was repeated until all 12 samples were analyzed.
(§2) For KinExA™ kₒₙ and koff measurements, antigen and antibody were prepared as described above. Antigen and antibody samples at 2× active concentration were prepared in PBSA with 0.2% BSA. Samples were mixed 1:1 and the timing for the experiment started. Typical 1× concentrations were 1 nM antibody active site concentration ([…]) and 2 nM antigen (8.6 ng/mL). A KinExA™ instrument (Sapidyne) and a kineticsdirect run file were used to follow the reaction. Time for each measurement was determined using the manufacturer's instructions. Free antibody remaining in the reaction was captured using β amyloid coated beads packed into the flow cell washed with PBSA and detected at each time point using 1:250 Goat anti-human Cy5 (Jackson) in PBSA. The flow cell was then flushed and recharged with beads for the next measurement, the process continued until a complete decay curve obtained. The data was analyzed using the KinExA™ Inject software.

[2] = biological target: T1, β Amyloid peptide 1-40; test: KinExA, Fab, equilibration 16 h
Method: as §1, with “The samples were then allowed to equilibrate for 24-72 hours at room temperature.” left out
as §2

[3] = biological target: T1, β Amyloid peptide 1-40; test: BIAcore; against m266
Method: (§3) BIAcore™ is an automated biosensor system that measures molecular interactions (Karlsson, et al. (1991) J. Immunol. Methods 145: 229-240). BIAcore™ analyses described herein were carried out at 25° C. In these experiments, antibody was immobilized at low density on a BIAcore™ CM5 or B1 chip. For the m266 antibody goat anti-mouse Fc (Jackson Immunoresearch) immobilized on CM5 in flow cell 2 was used for measuring binding constants. Goat anti-mouse was used as control antibody in flow cell 1. For the humanized antibodies, protein A or protein A/G was immobilized via amine coupling to flow cells 1 and 2 of a B1 or CM5 sensor chip.
Antibody was then captured only to flow cell 2 at desired levels (usually a 10-60 second injection of antibody) and allowed to stabilize for 5 minutes. For these experiments, a fresh aliquot of Aβ 1-40 was thawed and then diluted 1:10 in HBS-EP running buffer. The 1:10 dilution was used to make up a 200 nM Aβ solution which was serially diluted (1:2 dilutions) to a lowest concentration of 6.25 nM. Each concentration was injected over the surface for 5 minutes at a flow rate of 50 μl/min (250 μl total). The Aβ and antibody were eluted from both flow cells with a 40s injection of glycine pH 1.5. The signal is allowed to stabilize for 2 minutes before the next cycle. The data from flow cell 1 is subtracted from flow cell 2 to account for any bulk shifts due to buffer differences or non-specific binding to the sensor chip or Protein A. The various concentrations were injected randomly and each concentration was run in duplicate. Two control runs of buffer only were used to control for any dissociation of antibody from the capture surface. The data was analyzed using the Biaevalution™ software. A 1:1 model with mass transfer and a local Rmax was used as the best fit for the data.
Concentrations of human Aβ (1-40) from 200 nM to 1.6 nM in 2-fold serial dilution were used to obtain on-rate constant. The upper half of Table 6 represents determinations made with a first set of antibody preparations, while the lower half represents determinations made with a second set of antibody preparations

[4] = biological target: T1, β Amyloid peptide 1-40; test: BIAcore, mAb captured, Aβ 1-40 injected, second set of preparations
Method: as §3
Antibody was then captured only to flow cell 2 at desired levels (usually a 10-60 second injection of antibody) and allowed to stabilize for 5 minutes. For these experiments, a fresh aliquot of Aβ 1-40 was thawed and then diluted 1:10 in HBS-EP running buffer. The 1:10 dilution was used to make up a 200 nM Aβ solution which was serially diluted (1:2 dilutions) to a lowest concentration of 6.25 nM. Each concentration was injected over the surface for 5 minutes at a flow rate of 50 μl/min (250 μl total). The Aβ and antibody were eluted from both flow cells with a 40s injection of glycine pH 1.5. The signal is allowed to stabilize for 2 minutes before the next cycle. […] The data was analyzed using the Biaevalution™ software. […]

[5] = biological target: T1, β Amyloid peptide 1-40; test: KinExA, mAb, equilibration 16 h
Method: as §1, with “The samples were then allowed to equilibrate for 24-72 hours at room temperature.” left out
as §2

T1 sequence (P05067 672-711 limits assumed): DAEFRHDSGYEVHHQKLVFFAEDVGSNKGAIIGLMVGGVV

B1: 1A1 Fab (Fab, V domains shown)
VH: EVQLVESGGGLVKPGGSLRLSCAASGYTFSRYSMSWVRQAPGKGLEWVGQINIRGNNTYYPDTVKGRFTISRDDSKNTLYLQMNSLKTEDTAVYYCTTGDFWGQGTLVTVSS
VL: DIVMTQTPLSLSVTPGQPASISCSSSQSLIYSDGNAYLHWYLQKPGQSPQLLIYKVSNRFSGVPDRFSGSGSGTDFTLKISRVEAEDVGVYYCTQSTHSPWTFGGGTKVEIK
notes: Fab clone
B1 was tested, and the Kd [1] was 0.0019 nM, the koff [1] was 1.6e-06 s⁻¹ and the kon [1] was 830000 M⁻¹ s⁻¹.

B2: 1A12 Fab (Fab, V domains shown)
VH: EVQLVESGGGLVKPGGSLRLSCAASGFTFSRYSMSWVRQAPGKGLEWVGQINIRGNNTYYPDTVKGRFTISRDDSKNTLYLQMNSLKTEDTAVYYCTTGDFWGQGTLVTVSS
VL: DIVMTQTPLSLSVTPGQPASISCRSSQSLIYSDGNAYLHWYLQKPGQSPQLLIYKVSNRFSGVPDRFSGSGSGTDFTLKISRVEAEDVGVYYCSQSTHSPWTFGGGTKVEIK
notes: Fab clone
With B2 the Kd [2] was 0.0108 nM, the koff [2] was 1.72e-05 s⁻¹ and the kon [2] was 1.59e+06 M⁻¹ s⁻¹.

B3: 1A12 monoclonal antibody (IgG1) (antibody, V domains shown)
VH: EVQLVESGGGLVKPGGSLRLSCAASGFTFSRYSMSWVRQAPGKGLEWVGQINIRGNNTYYPDTVKGRFTISRDDSKNTLYLQMNSLKTEDTAVYYCTTGDFWGQGTLVTVSS
VL: DIVMTQTPLSLSVTPGQPASISCRSSQSLIYSDGNAYLHWYLQKPGQSPQLLIYKVSNRFSGVPDRFSGSGSGTDFTLKISRVEAEDVGVYYCSQSTHSPWTFGGGTKVEIK
With B3 the “Fold Increase (kon)” value [3] was 3 fold and the kon [4] was 410000 M⁻¹ s⁻¹.

B4: 1C5 monoclonal antibody (IgG1) (antibody, V domains shown)
VH: EVQLVESGGGLVKPGGSLRLSCAASGFTFSRYSMSWVRQAPGKGLEWVGQINSVANSTYYPDTVKGRFTISRDDSKNTLYLQMNSLKTEDTAVYYCTTGDFWGQGTLVTVSS
VL: DIVMTQTPLSLSVTPGQPASISCRSSQSLIYSDGNAYLHWYLQKPGQSPQLLIYKVSNRFSGVPDRFSGSGSGTDFTLKISRVEAEDVGVYYCSQSTHSPWTFGGGTKVEIK
B4 showed a Kd [5] of 0.973 nM, a koff [5] of 0.000371 s⁻¹ and a kon [5] of 420000 M⁻¹ s⁻¹.
